In publication PMC12022260:

Biological target: T1, His-FleQ (Azotobacter vinelandii AEIV) (UniProt C1DQF1)
T1 sequence: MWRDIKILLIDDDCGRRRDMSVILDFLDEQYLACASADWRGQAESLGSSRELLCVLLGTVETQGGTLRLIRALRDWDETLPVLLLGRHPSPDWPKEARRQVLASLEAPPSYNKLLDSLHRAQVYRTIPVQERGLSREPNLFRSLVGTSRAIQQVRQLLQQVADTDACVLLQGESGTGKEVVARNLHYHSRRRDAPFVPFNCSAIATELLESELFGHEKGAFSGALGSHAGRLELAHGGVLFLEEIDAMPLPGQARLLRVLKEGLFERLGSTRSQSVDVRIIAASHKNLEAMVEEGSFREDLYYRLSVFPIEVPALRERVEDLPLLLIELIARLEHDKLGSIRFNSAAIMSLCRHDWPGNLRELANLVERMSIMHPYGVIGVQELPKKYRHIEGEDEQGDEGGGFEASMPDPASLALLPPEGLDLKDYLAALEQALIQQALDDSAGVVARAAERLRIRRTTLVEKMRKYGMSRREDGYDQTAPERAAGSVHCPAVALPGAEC
Experiment: EMSA
Conditions: 10 mM Tris pH 8, 8 mM Mg acetate, 50 mM KCl, 10 ug/ml BSA, 5% glycerol; 100 ng DNA in 20 ul; room temperature 20 min; 6% native acrylamide gel, 0.5x-1x TBE …

Row | Sequence | binding
1 | CCGAAAATGCTGATACGCATTGCGTTCACCTCGTCCTTATTTAACGAAAAGTCGACGACTAAAACCCTTGGTCGTCACATTGCCGGCGGCCTTCAAGGGAAATTTGCAGGCCGAATTATAGTCAATAAAATGTCGTGCCAAATGAGCTGGCGTTAAAAGGCAGGTTGCAAGGGATGCTTTATAACTGCTCAAGCGATCCATGTTCG (double strand) [algD proximal region] | binds
2 | GCGAATTCGGACGCCGCGAGTAAAACGAAAAAGCAAGCCGCCTGAACCCACACTTGCGCTCCCGGCGTTTTGTACCATGCTTTTCCTGAATCATTGTGCTAAGGAGAAAAGTATGAATAAAAGAGGAGCGTTGTTGAGCCTGCTGGATCCAGG (double strand) [yebF regulatory region] | no binding
